Experiment: yeast display, Sf9 membrane polyspecificity reagent, FACS + sequencing; frameworks hold sequencing errors
Outline: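 Genes from sorted yeast were amplified by colony PCR, read by MiSeq 2 × 250 sequencing and filtered on CDR length. These cells carried a synthetic nanobody library in Saccharomyces cerevisiae BJ5465 and were sorted by FACS into low and high (top ~1%) gates on anti-HA and streptavidin fluorescence. Polyreactivity is labelled according to the gate of origin.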

Sequence | polyreactivity (PSR sort gate)
QVQLVESGGGLFQAGGSLRLSCAASGRTFYYYAMGWYRQAPGKERELVASISRTGGPTSYADSVKGRFTISRDTAKNPVYLQMNSLKPEDTAVYYCATRRRVYSGYDYWGQGTQVTVSS | high polyreactivity
QVQLVESGGGLFQAGGSLRLSCAASGSIFEFNAMGWYRQAPGKERELVAGITNSGSSTYYADSVKGRLTISRDHAKNTVYLQMNSLKPEDTAVFYCNARLSRWRRRPYDYWGQGTQVTVSS | high polyreactivity
QVQLVESGGGLFQAGGSLRLSCAASGSNFDYNAMGWYRPAHGKERELVAAITSTDSTYADSVKGRFTISRDTAKNTVYLQMNRLKPEDTAVYYCAAEDVIYYLTGQWREYDYWGQGTQVTVSS | low polyreactivity
QVQLVESGGGLFQAGGSLRLSCAASGSPFSSYAIGWYRQAPGKERELVAAISYRGTRTRYADSVKGRFTISRDNAKNTVYLQMNSLKPEDTAVYDCAADRTFYGIRFDYWGQGTQVTVSS | low polyreactivity
QVQLVESGGGLFQAGGSLRLSCAASGSTFDTNVMGWYRQAPGKERELVAAIDVSGGSTYYADSVKGRFTISRDNAKNTVYLQMNSLKPEDTAVYYCAAEGTTWYYDMDYWGQGTQVTVSS | low polyreactivity
QVQLVESGGGLFQAGGSLRLSCAASGSTFGFNAMGWYRQAPGKEREFVAAINTSGGNTYYADSVKGRFTISRDNAKNTVYLQMNSLKPEDTAVYYCNAREGHLYGYPYGYWGQGTQVTVSS | low polyreactivity
QVQLVESGGGLFQAGGSLRLSCAASGSTFGSYAMGWYRQAPAKERELVADISSRGASTYYADSVKGRFTISRDNEKNTVYLEMISLKPEDTAVYYCNTTGEYYDYWGHGTQVTVSS | low polyreactivity
QVQLVESGGGLFQAGGSLRLSCAASGSTFLIYAMGWYRQAPGKERELVATIRSGGASTNYADSVKGRFTISRDNAKNTVYLQMNSLKPEDTAVYYCPARCWTWTYQSSYVYWGQGTQVTVSS | low polyreactivity
QVQLVESGGGLFQAGGSLRLSCAASGSTFYAYAIGWYRQAPGKERELVAAITLSGGSTYYADSVKGRFTISRDNAKNTVYLQMNSLKPEDTAVYYCAADQLRCGDYYWGQGTQVTVSS | high polyreactivity
QVQLVESGGGLFQAGGSLRLSCAASGYIFGSYVMGWYIQAPGKERELVAAISRRGGSTYYADSVKGRFTISRDNAKNTVYLQMNSLNPEDTAVYYCAADDGQYAKYDYWGQGTQVTVSS | high polyreactivity
QVQLVESGGGLFQAGGSLRLSCAASGYIFVRYAMGWYRQAPGKEREFVAAISSSGGSTRYADSVKGRFTISRDKAKYNVYLQMNSLKPEDTAVYYCAATRVARDGSPMYYWGQGTQVTVSS | high polyreactivity
QVQLVESGGGLFQAGGSLRLSCAPSGFTFSNYAMGWYRQAPGKEREFVAAISGTGGSTYYADSVKGRFTISRDNAKNTVYLQMNSLKPEDTEVYYCYFYFRRQYEHEYWGQGTQVTVSS | high polyreactivity
QVQLVESGGGLFQAGGSLRLTCAASGRIFTHYSMGWYRQPPGKEREFVAAISRSGARTYYADSVKGRFTISRDYAKNTVYLQMYSLKREVTSVYYCAKDQVDSPRDRYQKLDFWGQGTQVTVSS | low polyreactivity
QVQLVESGGGLFQAGGSLRVSCAASGFTFVYYAMGWYRQAPGKERELVAAITASGGSTYYADSVQGRFTISRDNAKNTVYLQMNSLKPEDSADYYCNTVRYVRHYRQSGYWGQGTQVTVSS | high polyreactivity
QVQLVESGGGLFQAGGSLRVSCAASGITFRDNGMVWYRQAPGKERELVAAITSGGSTYYADSVKGSCTISRDHAKNTVYFQMNSLKPEDTAVYLCAAKRIKRRGWRQLSWYDSWGQGTQVTVSS | high polyreactivity
QVQLVESGGGLFQAGGSLRVSSAPSGITFYGYAMGWYRQAPGKERELVAAINRGGTGTYYADSVKGRFTISRYNAKNTVYLQMNSLTPEDTAVYYCNKAGYPLADPTAGKRQFDDWGQGTEVTVSS | low polyreactivity
QVQLVESGGGLFQAGGSLSLSCAASGRNLSGYDMGWYRQAQGKERELVAAITRGGTTYYADSVKGRFTISRDNSKNTVYLQMNSLKADDTAVVYTVSYAQYDYWGQGTQVTVSS | low polyreactivity
QVQLVESGGGLGKAGGSLRLSCAASGFIFYWNAMGWYRQAPGKEREFVATITWSGGSTYYADSVKGRFTISRDYAKNTVYLQMNSLKPEDTAFYYCAAEAPVQPFYVFNSGIYELDYWGQGTQVTVSS | low polyreactivity
QVQLVESGGGLGKAVGSLRLSCAASGSTFEYYALGWYRLAPGTETELVAAISTAGSTYYADSVKGRFTISRDNAKYTVYLQMNSLKPEDTGVYYCAVDPSPRSYYNYYWGQGTQVTVSS | high polyreactivity
QVQLVESGGGLGQAGGRLRLSCAASGRTFAQNAMGWNRKAPGKERELVAAITSSGGSTYYADSVKGRFTISRDNAKNTVYLQMNSLKPEDTAVYYCAADRHYGTEYAYDYWGQGTQVTVSS | low polyreactivity
QVQLVESGGGLGQAGGRLRLSCAASGRTFGYNAMGWYRQAPGKERELVAAISSGGSTNYADSVKGRFTISRDNAKNTVYLQMNSLKPEDTAVYYCAARRWRYVGTRYDYWGQGTQVTVSS | high polyreactivity

Sequence | polyreactivity (PSR sort gate)
QVQLVESGGGLGQAGGSLLLSCAASGTFYTYAMGWYRQAPAKERELVAAINGGGRTYYADSVKGRITISRDNAKNSVYFQMNSLKPEDTAVYYCAAVRRISRYDYWGQGTQVTVSS | high polyreactivity
QVQLVESGGGLGQAGGSLRISCAASGRTFGIYAMGCYRQAPGKLRELVATISWRGGSTYYADSVKGRFTISRDNAKNTVYLQMNSLTPEDTAVYYCAAGPGYLILISDIYGYWGQGTQVTVSS | low polyreactivity
QVQLVESGGGLGQAGGSLRLICAASGIIFLYYAMGWYRQAPGKERELVAAITRSGGNTYYADSVKGRFTISRDNAKNTVYLQMNSLIPEDTAVYYCAARHNSVRGRGYGYDYWGQGTQVTVSS | low polyreactivity
QVQLVESGGGLGQAGGSLRLSCAASGFIFGLNAMGWYRQAPGKERELVAAISSIGGSTYYADSVKGRFTISRDNAMNTVYLQMNSLIPEDTAVYYCAKRYGGRRSWYDYWGQGSQVTVSS | high polyreactivity
QVQLVESGGGLGQAGGSLRLSCAASGFIFTPYTMGWYRQAPGKERELVAAITDGSSTYYADSVKGRFTISRDNAKNTVYLQMNSLKQEDTAVYYCNDDGKPPYISWLYDYWGLGTQVTVSS | low polyreactivity
QVQLVESGGGLGQAGGSLRLSCAASGLIFFFYAMGWYRQAPGKERELVASISGGGITYYADSVKGRFTISRDNAKNTVYLQMYSLKPEDTAVIKNDFWGQGTQVTVSS | low polyreactivity
QVQLVESGGGLGQAGGSLRLSCAASGRIFSQNAMGWYRQAPGNERELVAAITGNGGDTYYADSVKGRFTISRDNAKNTVYLQMNSLKPEDTAVYYCAARVPPVYGRVGGYHYWGPGTQVTVSS | low polyreactivity
QVQLVESGGGLGQAGGSLRLSCAASGRIFTFNAMGWYRQAPGKARELVAAISSRGDGTYYADSVKGRFTISRDNAKNTVYLQMNSLKPEDTAVYDCAADVYPYQSLSYPLQYELDYWGQGTQVTVSS | low polyreactivity
QVQLVESGGGLGQAGGSLRLSCAASGRILYIYVMGRYRQARGKERELVAALTWDDGDTYYADSVKGRFTISRDNAKITVYLQMNSLKPEDTAVYNCNAGGQGVATITGHTPEFDYWGQGTQVTVSS | low polyreactivity
QVQLVESGGGLGQAGGSLRLSCAASGRTFAAYAMGWYRQAPGKERELVAAISAGDGTNYADSVKGRFTISRVNAQNTVYLQMNSLKPEDTAVYYCAAVGPLFWPYYSYRRGYDYWGQGTQVTVSS | low polyreactivity
QVQLVESGGGLGQAGGSLRLSCAASGRTFDNYAMGWYRQAPGKERELVARITDTGGSTYYADSVKGRFTISRVNAKNTVYLQMNSLKPEDTAVYYCAAVSYPFAWYWLYYYWGQGTQVTVSS | low polyreactivity
QVQLVESGGGLGQAGGSLRLSCAASGSIFDINAMGWYRQAPGKERELVAANRENGGDTYYPDSVKGRFTISRDNAKHTVYLQMNSLKPEDTAVYYCAAYSGDQAYQGDYWGQGTQVTVSS | low polyreactivity
QVQLVESGGGLGQAGGSLRLSCAASGSIFGKNAMGWYRQAPGKETELVAAITWSGGSTYYADSVKGRFTISRDNAKNTVYLQLNSLKPEDTAVYYCNAVRVRVTSHRFRQLDYGYWGQGTQVTVSS | low polyreactivity
QVQLVESGGGLGQAGGSLRLSCAASGSIFSANAMGWYRQAPGKERELVASITGDGSTNYADSVKGRFTISRDNAKNTVYLQMNSLKPEDTAVYYCAADIGSWYDYWGQGTQVTVSS | low polyreactivity
QVQLVESGGGLGQAGGSLRLSCAASGSIFYSYAMGWYRQAPGKDRELVADISSDGSTNYADSVKGRFTISRDNAKNTVFLQMNSLKPEDTAVYYCAKKPSSARYVTIGFDYWGQGTQVTVSS | low polyreactivity
QVQLVESGGGLGQAGGSLRLSCAASGYTFAGYAMGWYRPAPGKETELVAAISQSGGRTNYADSVKGRFTISRDNSKNTVYLQMNSLKPADTAVYYCAAEETSYTSEYWGQGTQVTVSS | high polyreactivity
QVQLVESGGGLGQAGGSLRLSCSASGRIFDIYGMGWYRQAPGKERELVAAITSGGDTNYADSVKGRFTISRDNAKNTVYLQMNSLKPEDTAVYYCAARIRDQDRYDYDYWGQGTQVTVSS | low polyreactivity
QVQLVESGGGLIQAGGSLRLSCAASGSTFPYYAMGWYRQAPVKEREFVAAIRFSGSSTYDADSVKGRYTISRDYAKTTVYLQMNSLNREDTAVYYCATDYWLPSFSYDYWGQGTQVTVSS | low polyreactivity
QVQLVESGGGLLHAGGSLRLSCAASGRTFYSNAMGWYRQAPGKERELVASISSRGSTNYADSVKGRFTISRDNAKNTVYLEMNSLKPEDTAVYYCAKRTHQFGVSRSYNTYYYWGHGTQVTVSS | low polyreactivity
QVQLVESGGGLLKAGGSLRLISAASGSIFGYNTMGWYRQAPGKERELVADISVSGDDTYYADSVKGRFTISRDNAKNTVYLQMNSLKPEDTAVSYCNAVEYFGYYNTYDYWGQGTQVTVSS | low polyreactivity

— the nanobody polyreactivity screen of Harvey et al. (2022)
